# Source: patent publication US20040198654A1 (Eli Lilly, published 2004)
# Where no end group is shown, it is not given here.
# Molecular target: GLP-1 receptor
# Test: cell-based or functional assay
row,Binder,GLP-1 receptor activation relative to Val^8-GLP-1(7-37)OH
1,HVEGTYTSDVSSYLEGQAAKEFIAWLVKGRG-OH [Val^8-Tyr^12-GLP-1(7-37)OH],1.7 fold of Val^8-GLP-1(7-37)OH
2,HVEGTFTSDVSSYLEEQALKEFIAWLVKGRG-OH [Val^8-Glu^22-Leu^25-GLP-1(7-37)OH],2.8 fold of Val^8-GLP-1(7-37)OH
3,HVEGTYTSDVSSYLEGQAAKEFIAWLVKGR-NH2 [Val^8-Tyr^12-GLP-1(7-36)NH2],1.1 fold of Val^8-GLP-1(7-37)OH
4,HVEGTFTSDYSSFLEGQAAKEFIAWLVKGRG-OH [Val^8-Tyr^16-Phe^19-GLP-1(7-37)OH],2.8 fold of Val^8-GLP-1(7-37)OH
5,HVEGTFTSDWSSYLEEQAVKEFIAWLIKGRG-OH [Val^8-Trp^16-Glu^22-Val^25-Ile^33-GLP-1(7-37)OH],5 fold of Val^8-GLP-1(7-37)OH
6,HVEGTFTSDVSSYLEEQAAKIFIAWLVKGRG-OH [Val^8-Glu^22-Ile^27-GLP-1(7-37)OH],2 fold of Val^8-GLP-1(7-37)OH
7,HVEGTFTSDVSSFLEEQAAKEFIAWLVKGRG-OH [Val^8-Phe^19-Glu^22-GLP-1(7-37)OH],1.5 fold of Val^8-GLP-1(7-37)OH
8,HVEGTFTSDVSSYLEGQALKEFIAWLVKGRG-OH [Val^8-Leu^25-GLP-1(7-37)OH],0.5 fold of Val^8-GLP-1(7-37)OH
9,HVEGTFTSDVSSYLEEQAIKEFIAWLVKGRG-OH [Val^8-GLU^22-Ile^25-GLP-1(7-37)OH],3.1 fold of Val^8-GLP-1(7-37)OH
10,HVEGTFTSDVSSYLEGQAAKEFIAWLVKGRH-OH [Val^8-His^37-GLP-1(7-37)OH],1.2 fold of Val^8-GLP-1(7-37)OH
11,HVEGTFTSDVSSYLEGQAAKEFIEWLVKGRG-OH [Val^8-Glu^30-GLP-1(7-37)OH],0.7 fold of Val^8-GLP-1(7-37)OH
12,HVEGTFTSDVSKYLEEQAAKEFIAWLVKGRG-OH [Val^8-Lys^18-Glu^22-GLP-1(7-37)OH],2.5 fold of Val^8-GLP-1(7-37)OH
13,HGEGTFTSDVSSYLEGQAAKEFIAWLVKGRG-OH [Gly^8-GLP-1(7-37)OH],1.7 fold of Val^8-GLP-1(7-37)OH
14,HVEGTYTSDVSSYLEEQAAKEFIAWLVKGRG-OH [Val^8-Tyr^12-Glu^22-GLP-1(7-37)OH],2.7 fold of Val^8-GLP-1(7-37)OH
15,HVEGTFTSDVSSYFEEQAAKEFIAWLVKGRG-OH [Val^8-Phe^20-Glu^22-GLP-1(7-37)OH],2.7 fold of Val^8-GLP-1(7-37)OH
16,HVEGTFTSDLSSYLEEQAAKEFIAWLVKGRG-OH [Val^8-Leu^16-Glu^22-GLP-1(7-37)OH],4.3 fold of Val^8-GLP-1(7-37)OH

row,Binder,GLP-1 receptor activation relative to Val^8-GLP-1(7-37)OH
1,HVEGTWTSDVSSYLEGQAAKEFIAWLVKGRG-OH [Val^8-Trp^12-GLP-1(7-37)OH],1.1 fold of Val^8-GLP-1(7-37)OH
2,HVDGIFTSDYSSYLEEQAAKEFIAWLVKGRG-OH [Val^8-Asp^9-Ile^11-Tyr^16-Glu^22-GLP-1(7-37)OH],4.3 fold of Val^8-GLP-1(7-37)OH
3,HVEGTFTSDLSSYLEGQAAKEFIAWLVKGRG-OH [Val^8-Leu^16-GLP-1(7-37)OH],1.1 fold of Val^8-GLP-1(7-37)OH
4,HVEGTYTSDYSSYLEGQAAKEFIAWLVKGRG-OH [Val^8-Tyr^12-Tyr^16-GLP-1(7-37)OH],1.5 fold of Val^8-GLP-1(7-37)OH
5,HVEGTFTSDFSSYLEEQAAKEFIAWLVKGRG-OH [Val^8-Phe^16-Glu^22-GLP-1(7-37)OH],2.3 fold of Val^8-GLP-1(7-37)OH
6,HVEGTFTSDVSSYLEEQAAKEFIAWLVKGRH-OH [Val^8-Glu^22-His^37-GLP-1(7-37)OH],4.7 fold of Val^8-GLP-1(7-37)OH
7,HVEGTFTSDWSSYLEEQAVKEFIAWLVKGRG-OH [Val^8-Trp^16-Glu^22-Val^25-GLP-1(7-37)OH],4.4 fold of Val^8-GLP-1(7-37)OH
8,HVEGTFTSDYSSYLEGQAAKEFIAWLVKGRG-OH [Val^8-Tyr^16-GLP-1(7-37)OH],2.5 fold of Val^8-GLP-1(7-37)OH
9,HVEGTFTSDYSSWLEEQAAKEFIAWLVKGRG-OH [Val^8-Tyr^16-Trp^19-Glu^22-GLP-1(7-37)OH],3.5 fold of Val^8-GLP-1(7-37)OH
10,HVEGTFTSDISSYLEEQAAKEFIAWLVKGRG-OH [Val^8-Ile^16-Glu^22-GLP-1(7-37)OH],3.3 fold of Val^8-GLP-1(7-37)OH
11,HVEGTWTSDVSSYLEEQAAKEFIAWLVKGRG-OH [Val^8-Trp^12-Glu^22-GLP-1(7-37)OH],1.7 fold of Val^8-GLP-1(7-37)OH
12,HVEGTFTSDVSIYLEEQAAKEFIAWLVKGRG-OH [Val^8-Ile^18-Glu^22-GLP-1(7-37)OH],4 fold of Val^8-GLP-1(7-37)OH
13,HVEGTFTSDVSFYLEEQAAKEFIAWLVKGRG-OH [Val^8-Phe^18-Glu^22-GLP-1(7-37)OH],2 fold of Val^8-GLP-1(7-37)OH
14,HVEGTFTSDVSSWLEEQAAKEFIAWLVKGRG-OH [Val^8-Trp^19-Glu^22-GLP-1(7-37)OH],3.2 fold of Val^8-GLP-1(7-37)OH
15,HVEGTFTSDWSSYLEEQAAKEFIAWLIKGRG-OH [Val^8-Trp^16-Glu^22-Ile^33-GLP-1(7-37)OH],4.1 fold of Val^8-GLP-1(7-37)OH
